Six molecules from patent US20230313180A1 can be followed below.

Assay [1] deals with SARS-CoV-2-RBD tagged with a C-terminal Fc tag (ACRO Biosystems) (SARS-CoV-2) (UniProt P0DTC2).
Assay [2] shares this target. Description: BLI, immobilized SARS-CoV-2 RBD. On the technique in general: Biolayer interferometry detects binding as a change in optical thickness at a sensor tip.
The target in assay [3] is T1, SARS-CoV-2-RBD tagged with a C-terminal Fc tag (ACRO Biosystems) (SARS-CoV-2), P0DTC2. In words: BLI, immobilized SARS-CoV-2 RBD; reference (Nb1N)2.
For assay [4], the target named is T1, SARS-CoV-2-RBD tagged with a C-terminal …. Description: BLI, immobilized SARS-CoV-2 RBD; reference Nb1-Nb1 genetic dimer.
The target is the same in assay [5].
The target is the same in assay [6]. This is another data set of the same source.

Read-outs that look alike come from different tables or passages of the source.

Broadly, the Kd is the equilibrium constant for the complex coming apart. A lower Kd goes with tighter binding. In general, koff refers to a measure of how fast the partners let go of each other. Low values mean slow dissociation, high ones fast dissociation. Usually kon stands for a measure of how fast the partners come together. The low end stands for slower complex formation, the high end for faster complex formation. In assay [1], “Nb1-Nb1, genetically linked "tail to head" dimer of Nb1 (VHH72)” came in with a Kd of 89 nM, a koff of 0.00314 s⁻¹ and a kon of 35400 M⁻¹ s⁻¹. The molecule further showed a Kd in assay [2] of 88 nM.

B1: (Nb1N)3, homotrimer of Nb1 (VHH72) with Tet3.0 at the N-terminal position, joined by the 3-armed Tri-sTCO PEG linker (VHH)
VHH: SGTGSQVQLQESGGGLVQAGGSLRLSCAASGRTFSEYAMGWFRQAPGKEREFVATISWSGGSTYYTDSVKGRFTISRDNAKNTVYLQMNSLKPDDTAVYYCAAAGLGTVVSEWDYDYYLDYWGQGTQVTVSS
modifications: not checked
In assay [3], B1 returned a fold larger kon than (Nb1N)2 of 3 fold, a fold smaller koff than (Nb1N)2 of 2 fold and a fold tighter KD than (Nb1N)2 of 6 fold. The fold tighter KD than the genetic dimer Nb1-Nb1 in assay [4] stood at 44 fold. In assay [5], this molecule gave a Kd of 2.31 nM, a koff of 0.000566 s⁻¹ and a kon of 246000 M⁻¹ s⁻¹.

B2: (Nb1N)2, homodimer of Nb1 (VHH72) with Tet3.0 at the N-terminal position, joined by the 2-headed sTCO (PEG)12 linker (VHH)
VHH: SGTGSQVQLQESGGGLVQAGGSLRLSCAASGRTFSEYAMGWFRQAPGKEREFVATISWSGGSTYYTDSVKGRFTISRDNAKNTVYLQMNSLKPDDTAVYYCAAAGLGTVVSEWDYDYYLDYWGQGTQVTVSS
modifications: not checked
As for B2, in assay [6], the Kd came to 13.8 nM, the koff was 0.00119 s⁻¹ and the kon is 85800 M⁻¹ s⁻¹. In assay [4], this molecule came in with a fold tighter binding than Nb1-Nb1 of 7 fold.

B3: (Nb142)2, homodimer of Nb1 (VHH72) with Tet3.0 at framework position Gly42, joined by the 2-headed sTCO (PEG)12 linker (VHH)
VHH: QVQLQESGGGLVQAGGSLRLSCAASGRTFSEYAMGWFRQAPGKEREFVATISWSGGSTYYTDSVKGRFTISRDNAKNTVYLQMNSLKPDDTAVYYCAAAGLGTVVSEWDYDYYLDYWGQGTQVTVSS
modifications: not checked
In assay [6], B3 came in with a Kd of 27.5 nM, a koff of 0.00201 s⁻¹ and a kon of 73100 M⁻¹ s⁻¹. The molecule also registered a fold tighter binding than Nb1-Nb1 in assay [4] of 3 fold.

B4: (Nb1C)2, homodimer of Nb1 (VHH72) with Tet3.0 at the C-terminus, joined by the 2-headed sTCO (PEG)12 linker (VHH)
VHH: QVQLQESGGGLVQAGGSLRLSCAASGRTFSEYAMGWFRQAPGKEREFVATISWSGGSTYYTDSVKGRFTISRDNAKNTVYLQMNSLKPDDTAVYYCAAAGLGTVVSEWDYDYYLDYWGQGTQVTVSS
modifications: not checked
With B4, in assay [6], the Kd came out at 132 nM, the koff is 0.0064 s⁻¹ and the kon stood at 48100 M⁻¹ s⁻¹. The molecule further yielded a fold weaker binding than Nb1-Nb1 in assay [4] of 1.5 fold.

B5: (Nb113)2, homodimer of Nb1 (VHH72) with Tet3.0 at framework position Gln13, joined by the 2-headed sTCO (PEG)12 linker (VHH)
VHH: QVQLQESGGGLVQAGGSLRLSCAASGRTFSEYAMGWFRQAPGKEREFVATISWSGGSTYYTDSVKGRFTISRDNAKNTVYLQMNSLKPDDTAVYYCAAAGLGTVVSEWDYDYYLDYWGQGTQVTVSS
modifications: not checked
Consider B5, for which, in assay [6], the Kd turned out to be 46 nM, the koff is 0.00156 s⁻¹ and the kon is 33800 M⁻¹ s⁻¹.
